From patent US20260055184A1 (Hoffmann-La Roche, published 2026) come the findings set out here.

In experiment [1] the target is T1, CD3 binder CH2527 (VL_7-46(13)/VH_3-23(12)), as analyte MAK<CEA/CD3>rH.
T1 construct: the rest of the analyte MAK<CEA/CD3>rH (a CEA/CD3 molecule by its name) is not described
Put plainly: SPR (Biacore), 25°C, analyte MAK<CEA/CD3>rH. A general note: Surface plasmon resonance follows binding to a sensor surface in real time, without labels.

For experiment [2], the target named is T1, CD3 binder CH2527 …. The experiment in a line: SPR (Biacore), 37°C, analyte MAK<CEA/CD3>rH.
Experiment [3] concerns the target T2, HER1 extracellular domain (human, UniProt P00533 25-645).
T2 construct: extracellular domain
Put plainly: SPR Biacore T100; HER1 extracellular domain amine-coupled on CM5, antibody injected at 3.125-50 nM, 1:1 Langmuir model. On the procedure: (§1) HER1 was immobilized on the surface of a CM5 biosensorchip using standard amine-coupling chemistry. The HER1 extracellular domain was injected in sodium acetate, pH 5.0 at 1 μg/ml. Reference control flow cells were treated in the same way but with vehicle buffer only. […] The association phase was 3 minutes and the dissociation time was 10 minutes. […] Kinetic rate constants and equilibrium dissociation constants were calculated by using the 1:1 Langmuir binding model within the Biaevaluation software.

Experiment [4] deals with T2, HER1 extracellular domain. Put plainly: SPR (Biacore T100), HER1 extracellular domain amine-coupled on a CM5 chip, antibody as analyte, 37 °C, 1:1 Langmuir model. On the procedure: as §1

B1: anti-idiotypic CH2527 binder 4.15.64 (scFv)
scFv: QIQLVQSGPELKKPGETVRISCKASGYTFTDYSIHWVKQAPGKCLKWMGWINTETGEPAYADDFKGRFAFSLETSASTAYLQINNLKNEDTATFFCAHPYDYDVLDYWGQGTSVTVSSGGGGSGGGGSGGGGSGGGGSDTVLTQSPASLGVSLGQRATISCRASKSVSTSNYSYIHWYQQKPGQPPKLLIKYVSYLESGVPARFSGSGSGTDFTLNIHPVEEEDAATYYCQHSREFPWTFGCGTKLEIK
notes: From mouse hybridomas (immunisation with CH2527 Fab)
For orientation: Kd means the concentration at which binding is half-saturated. Read a high Kd as lower affinity. For orientation: koff means the first-order rate constant of dissociation. High values mean a short-lived complex, low ones a long-lived complex. A word on the kon: it is the rate constant with which the complex forms. Higher therefore signals faster complex formation. As for B1, in experiment [1], binding was put at a Kd of 96 nM, the koff is 0.0025 s⁻¹ and the kon turned out to be 26100 M⁻¹ s⁻¹. In experiment [2], this molecule gave a Kd of 94 nM, a koff of 0.0135 s⁻¹ and a kon of 144000 M⁻¹ s⁻¹.

B2: HER1-binding IgG1 antibody GA201 (antibody, V domains shown)
VH: QVQLVQSGAEVKKPGSSVKVSCKASGFTFTDYKIHWVRQAPGQGLEWMGYFNPNSGYSTYAQKFQGRVTITADKSTSTAYMELSSLRSEDTAVYYCARLSPGGYYVMDAWGQGTTVTVSS
VL: DIQMTQSPSSLSASVGDRVTITCRASQGINNYLNWYQQKPGKAPKRLIYNTNNLQTGVPSRFSGSGSGTEFTLTISSLQPEDFATYYCLQHNSFPTFGQGTKLEIKR
notes: produced in 293-F cells; also called anti HER1 antibody GA201; GA201 parental unmasked antibody
B2 showed a Kd in experiment [3] of 1 nM. Moreover, in experiment [4], the koff is 0.00012 s⁻¹ and the kon came to 168000 M⁻¹ s⁻¹.

B3: 4.24.72 (antibody, V domains shown)
VH: QIQLVQSGPELKKPGETVKISCKASGYTVTDYSMNWVKQAPGKCLKWMGWINTETGEPRYTDDFKGRFAFSLETSASTAYLQINNLKNEDSATYFCAREGDYDVFDYWGHGTTLKVSS
VL: DIVLTQSPASLAVSLGQRATISCRASKSVSTSSYSYMHWYQQKPGQPPKLLIKYVSYLESGVPARFSGSGSGTDFTLNIHPVEEEDAATYYCQHSREFPYTFGCGTKLEIK
B3: in experiment [1], the Kd was 14 nM, the koff was found to be 0.00118 s⁻¹ and the kon amounted to 87200 M⁻¹ s⁻¹. Moreover, in experiment [2], binding was characterised by a dissociation constant (Kd) of 29 nM, the koff worked out at 0.00445 s⁻¹ and the association rate constant (kon) came to 155000 M⁻¹ s⁻¹.

B4: anti-idiotypic CH2527 binder 4.32.63 (scFv)
scFv: QVQLKESGPGLVAPSQSLSITCTVSGFSLTSYGVSWVRQPPGKCLEWLGIIWGDGSTNYHSALISRLSISKDNSKSQVFLKLNSLQTDDTATYYCAKGITTVVDDYYAMDYWGQGTSVTVSSGGGGSGGGGSGGGGSGGGGSDIQMTQSPASLSASVGETVTITCRASENIDSYLAWYQQKQGKSPQLLVYAATFLADDVPSRFSGSGSGTQYSLKINSLQSEDVARYYCQHYYSTPYTFGCGTKLEIK
notes: as for B1
As to B4, in experiment [1], the affinity, expressed as Kd, was 1 nM; the koff was determined as 0.000105 s⁻¹; the kon was found to be 196000 M⁻¹ s⁻¹. In experiment [2], this molecule gave a Kd of 2 nM, a dissociation rate constant (koff) of 0.000652 s⁻¹ and a kon of 346000 M⁻¹ s⁻¹.
